In publication PMC4253074 (Journal of molecular biology, 2014):
Changes are numbered by the printed parent chain.

B1: PDE6 inhibitory γ-subunit (Pγ), endogenous, in the purified PDE6 holoenzyme (natural protein, bovine, UniProt P04972 1-87, looked up)
chain: MNLEPPKAEIRSATRVMGGPVTPRKGPPKFKQRQTRQFKSKPPKKGVQGFGDDIPGMEGLGTDITVICPWEAFNHLELHELAQYGII
B2: wild-type Pγ, recombinant (Pγ 1–87) (natural protein, bovine, UniProt P04972 1-87, looked up)
chain: B1 chain
B3: Pγ 30C-MBP (natural protein, bovine, UniProt P04972 1-87, looked up)
chain: B1 chain with F30C, C68S
modifications: 4-(N-maleimido)benzophenone (MBP) on Cys30
B4: Pγ 73C-MBP (natural protein, bovine, UniProt P04972 1-87, looked up)
chain: B1 chain with C68S, F73C
modifications: 4-(N-maleimido)benzophenone (MBP) on Cys73

Key:
Assay in all cases: cross-linking
[1] = target: PDE6 catalytic dimer (Pαβ) (bovine, UniProt P11541 1-859; P23439 1-853)
[2] = target: T1, PDE6 β-subunit (Pβ), catalytic subunit of bovine rod photoreceptor phosphodiesterase (bovine, UniProt P23439 1-853)
T1 sequence (looked up): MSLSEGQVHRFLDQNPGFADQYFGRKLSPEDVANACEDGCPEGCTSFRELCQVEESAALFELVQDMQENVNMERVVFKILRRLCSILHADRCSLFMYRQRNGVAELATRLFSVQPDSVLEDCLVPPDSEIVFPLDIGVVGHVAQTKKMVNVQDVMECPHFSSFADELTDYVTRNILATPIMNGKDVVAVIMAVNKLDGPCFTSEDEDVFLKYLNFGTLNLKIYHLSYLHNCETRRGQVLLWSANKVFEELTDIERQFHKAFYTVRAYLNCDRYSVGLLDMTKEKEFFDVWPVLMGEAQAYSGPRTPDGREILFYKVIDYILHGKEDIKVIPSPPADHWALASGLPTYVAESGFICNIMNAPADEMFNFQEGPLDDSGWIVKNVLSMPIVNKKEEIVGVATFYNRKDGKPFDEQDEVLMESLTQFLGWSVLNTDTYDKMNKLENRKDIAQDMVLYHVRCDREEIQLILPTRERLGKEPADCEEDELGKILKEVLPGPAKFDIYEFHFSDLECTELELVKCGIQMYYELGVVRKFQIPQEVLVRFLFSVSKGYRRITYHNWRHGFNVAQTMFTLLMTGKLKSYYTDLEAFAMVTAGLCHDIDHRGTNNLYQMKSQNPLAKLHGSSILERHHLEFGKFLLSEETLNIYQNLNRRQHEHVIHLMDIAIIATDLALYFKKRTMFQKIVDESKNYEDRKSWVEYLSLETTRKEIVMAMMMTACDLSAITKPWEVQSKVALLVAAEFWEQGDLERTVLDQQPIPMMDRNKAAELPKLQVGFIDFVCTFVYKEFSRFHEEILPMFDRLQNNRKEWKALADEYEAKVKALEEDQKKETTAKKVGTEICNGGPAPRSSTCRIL

[3] = target: T2, PDE6 α-subunit (Pα), catalytic subunit of bovine rod photoreceptor phosphodiesterase (bovine, UniProt P11541 1-859)
T2 sequence (looked up): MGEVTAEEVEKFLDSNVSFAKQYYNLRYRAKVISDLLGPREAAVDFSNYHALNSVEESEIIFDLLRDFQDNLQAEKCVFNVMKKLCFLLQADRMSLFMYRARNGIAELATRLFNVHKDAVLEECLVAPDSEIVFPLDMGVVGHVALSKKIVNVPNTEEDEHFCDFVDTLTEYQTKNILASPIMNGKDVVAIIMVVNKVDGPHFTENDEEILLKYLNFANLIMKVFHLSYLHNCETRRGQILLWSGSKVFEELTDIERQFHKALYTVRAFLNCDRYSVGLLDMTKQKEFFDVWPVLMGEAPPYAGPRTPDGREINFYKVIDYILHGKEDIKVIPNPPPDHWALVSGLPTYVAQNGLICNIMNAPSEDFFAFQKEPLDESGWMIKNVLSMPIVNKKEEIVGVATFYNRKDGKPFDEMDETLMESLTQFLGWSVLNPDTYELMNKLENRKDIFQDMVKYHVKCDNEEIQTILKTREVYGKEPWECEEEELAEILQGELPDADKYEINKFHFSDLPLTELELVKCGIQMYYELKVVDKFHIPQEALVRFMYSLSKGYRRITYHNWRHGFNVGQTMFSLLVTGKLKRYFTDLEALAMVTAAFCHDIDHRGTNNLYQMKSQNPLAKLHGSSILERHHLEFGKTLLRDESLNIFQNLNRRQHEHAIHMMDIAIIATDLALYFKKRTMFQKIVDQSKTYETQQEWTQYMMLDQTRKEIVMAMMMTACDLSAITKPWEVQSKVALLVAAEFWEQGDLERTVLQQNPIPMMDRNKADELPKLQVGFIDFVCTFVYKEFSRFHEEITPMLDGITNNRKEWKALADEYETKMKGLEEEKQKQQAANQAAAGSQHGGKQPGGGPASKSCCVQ

Binder	binding result [1]	binding result [2]	binding result [3]
B1	binds		
B2	binds		
B3		binds	
B4		binds	binds
